The source of these data is article doi:10.1101/2024.03.12.584703.

As usually defined, the Kd is a measure of binding affinity in units of concentration.

For the test, the target named is VCAP-102 capsid (adeno-associated virus 9) (UniProt Q6JC40). Briefly: SPR. For orientation: In SPR one partner is held on a chip, and binding of the other changes the refractive index at the surface.

B1: His-tagged human ALPL (recombinant) (receptor)
chain: LVPEKEKDPKYWRDQAQETLKYALELQKLNTNVAKNVIMFLGDGMGVSTVTAARILKGQLHHNPGEETRLEMDKFPFVALSKTYNTNAQVPDSAGTATAYLCGVKANEGTVGVSAATERSRCNTTQGNEVTSILRWAKDAGKSVGIVTTTRVNHATPSAAYAHSADRDWYSDNEMPPEALSQGCKDIAYQLMHNIRDIDVIMGGGRKYMYPKNKTDVEYESDEKARGTRLDGLDLVDTWKSFKPRYKHSHFIWNRTELLTLDPHNVDYLLGLFEPGDMQYELNRNNVTDPSLSEMVVVAIQILRKNPKGFFLLVEGGRIDHGHHEGKAKQALHEAVEMDRAIGQAGSLTSSEDTLTVVTADHSHVFTFGGYTPRGNSIFGLAPMLSDTDKKPFTAILYGNGPGYKVVGGERENVSMVDYAHNNYQAQSAVPLRHETHGGEDVAVFSKGPMAHLLHGVHEQNYVPHVMAYAACIGANLGHCAPAS
Consider B1, for which the Kd worked out at 20 nM.
